Experimental data from US20220227830A1, “QD DOSING OF GIP RECEPTOR AGONIST PEPTIDE COMPOUNDS AND USES THEREOF” (Takeda Pharmaceutical Company Limited, priority 2020, published 2022).
Starred links: 1 amine or outer side, 2 acyl side, 3 side chain; linkers in the order of their positions; H or OH if unused. Non-standard residues stand in square brackets, D forms with d. Groups on a side chain read outwards from the residue. No end group written: not given here. *: point of attachment. 2OEGgEgE‑C15DA = 2OEGgEgE-C15 diacid linker-lipid on the Lys side chain, O=C(O)CCCCCCCCCCCCCC(=O)N[C@@H](CCC(=O)N[C@@H](CCC(=O)NCCOCCOCC(=O)NCCOCCOCC(=O)*)C(=O)O)C(=O)O; GGEEE‑C15DA = Gly-Gly-Glu-Glu-Glu linker (GGEEE) joined to a C15 diacid lipid (C15DA), on the Lys side chain; 2OEGgE‑C16DA = O=C(O)CCCCCCCCCCCCCCC(=O)N[C@@H](CCC(=O)NCCOCCOCC(=O)NCCOCCOCC(=O)*)C(=O)O; C16 diacid = O=C(O)CCCCCCCCCCCCCCC(=O)*; C15 diacid = O=C(O)CCCCCCCCCCCCCC(=O)*; γGlu = O=C(O)[C@H](CCC(=O)[*:2])N[*:1]; NMeY = CN[C@@H](Cc1ccc(O)cc1)C(=O)O; AEEA = NCCOCCOCC(=O)O; Aib = CC(C)(N)C(=O)O

Experiments:
[1] = molecular target: full-length human GLP-1R with an N-terminal FLAG tag (human, UniProt P43220 24-463); experiment: cell-based or functional assay
[2] = molecular target: T1, full-length human GIPR with an N-terminal FLAG tag (human, UniProt P48546 22-466); experiment: cell-based or functional assay
T1 sequence (looked up): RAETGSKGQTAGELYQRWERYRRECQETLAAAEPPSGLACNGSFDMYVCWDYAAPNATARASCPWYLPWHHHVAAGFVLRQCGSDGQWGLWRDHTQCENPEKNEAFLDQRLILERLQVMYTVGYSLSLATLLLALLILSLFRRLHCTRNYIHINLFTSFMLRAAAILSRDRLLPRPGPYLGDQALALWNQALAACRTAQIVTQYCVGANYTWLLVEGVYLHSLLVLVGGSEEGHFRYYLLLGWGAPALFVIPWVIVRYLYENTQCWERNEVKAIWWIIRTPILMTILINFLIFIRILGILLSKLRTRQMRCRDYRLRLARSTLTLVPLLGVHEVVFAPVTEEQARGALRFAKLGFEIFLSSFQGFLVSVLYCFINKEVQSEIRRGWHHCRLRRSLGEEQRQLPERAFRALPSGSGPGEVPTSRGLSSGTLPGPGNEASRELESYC

Binder	Human GLP1R cAMP HEK293T EC50 [1]	Human GIPR cAMP, HEK293T EC50 [2]
[NMeY][Aib]EGTFISDYSI[Aib]LDR[Aib]AQ[Aib]DFVNWLLAQK(2OEGgE‑C15DA)PSSGAPPPS-NH2 [Compound 100]	1000 nM	0.0007 nM
[NMeY][Aib]EGTFISDYSIALDR[Aib]AQ[Aib]DFVNWLLAK(2OEGgE‑C15DA)RPSSGAPPPS-NH2 [Compound 109]	832 nM	0.0005 nM
[NMeY][Aib]EGTFISDYSIALDRIHQ[Aib]NFVNWLLK(2OEGgE‑C16DA)QK [Compound 10]	955 nM	0.0006 nM
[NMeY][Aib]EGTFISDYSIALDRK([AEEA-AEEA-γGlu-C15 diacid])AQ[Aib]DFVNWLLAQRPSSGAPPPS-NH2 [Compound 104]	1000 nM	0.0004 nM
[NMeY][Aib]EGTFISDYSI[Aib]LDR[Aib]AQ[Aib]K(2OEGgEgE‑C15DA)FVNWLLAQR-NH2 (N-terminus assumed; SMILES CC[C@H](C)[C@H](NC(=O)[C@H](Cc1ccccc1)NC(=O)[C@@H](NC(=O)CNC(=O)[C@H](CCC(=O)O)NC(=O)C(C)(C)NC(=O)[C@H](Cc1ccc(O)cc1)NC)[C@@H](C)O)C(=O)N[C@@H](CO)C(=O)N[C@@H](CC(=O)O)C(=O)N[C@@H](Cc1ccc(O)cc1)C(=O)N[C@@H](CO)C(=O)N[C@H](C(=O)NC(C)(C)C(=O)N[C@@H](CC(C)C)C(=O)N[C@@H](CC(=O)O)C(=O)N[C@@H](CCCNC(=N)N)C(=O)NC(C)(C)C(=O)N[C@@H](C)C(=O)N[C@@H](CCC(N)=O)C(=O)NC(C)(C)C(=O)N[C@@H](CCCCNC(=O)COCCOCCNC(=O)COCCOCCNC(=O)CC[C@H](NC(=O)CC[C@H](NC(=O)CCCCCCCCCCCCCC(=O)O)C(=O)O)C(=O)O)C(=O)N[C@@H](Cc1ccccc1)C(=O)N[C@H](C(=O)N[C@@H](CC(N)=O)C(=O)N[C@@H](Cc1c[nH]c2ccccc12)C(=O)N[C@@H](CC(C)C)C(=O)N[C@@H](CC(C)C)C(=O)N[C@@H](C)C(=O)N[C@@H](CCC(N)=O)C(=O)N[C@@H](CCCNC(=N)N)C(N)=O)C(C)C)[C@@H](C)CC) [Compound 108]	41.7 nM	0.0005 nM
[NMeY][Aib]EGTFISDYSI[Aib]LDR[Aib]AQ[Aib]K(2OEGgE‑C15DA)FVNWLLAQSPSSGAPPPS-NH2 [Compound 102]	31.6 nM	0.0005 nM
[NMeY][Aib]EGTFISDYSIALDR[Aib]K(GGEEE‑C15DA)Q[Aib]NFVNWLLAQSPSSGAPPPS-NH2 [Compound 105]	1000 nM	0.0003 nM
[NMeY][Aib]EGTFISDYSIALDR[Aib]KQ[Aib]DFVNWLLAQSPSSGAPPPS-NH2 (not fully specified (residue 18, N-terminus)) [Compound 106]	120 nM	0.0005 nM
[NMeY][Aib]EGTFISDYSIALDR[Aib]AQ[Aib]NFVNWLLAQK(2OEGgEgE‑C15DA)PSSGAPPPS-NH2 (N-terminus assumed; SMILES CC[C@H](C)[C@H](NC(=O)[C@H](CO)NC(=O)[C@H](Cc1ccc(O)cc1)NC(=O)[C@H](CC(=O)O)NC(=O)[C@H](CO)NC(=O)[C@@H](NC(=O)[C@H](Cc1ccccc1)NC(=O)[C@@H](NC(=O)CNC(=O)[C@H](CCC(=O)O)NC(=O)C(C)(C)NC(=O)[C@H](Cc1ccc(O)cc1)NC)[C@@H](C)O)[C@@H](C)CC)C(=O)N[C@@H](C)C(=O)N[C@@H](CC(C)C)C(=O)N[C@@H](CC(=O)O)C(=O)N[C@@H](CCCNC(=N)N)C(=O)NC(C)(C)C(=O)N[C@@H](C)C(=O)N[C@@H](CCC(N)=O)C(=O)NC(C)(C)C(=O)N[C@@H](CC(N)=O)C(=O)N[C@@H](Cc1ccccc1)C(=O)N[C@H](C(=O)N[C@@H](CC(N)=O)C(=O)N[C@@H](Cc1c[nH]c2ccccc12)C(=O)N[C@@H](CC(C)C)C(=O)N[C@@H](CC(C)C)C(=O)N[C@@H](C)C(=O)N[C@@H](CCC(N)=O)C(=O)N[C@@H](CCCCNC(=O)COCCOCCNC(=O)COCCOCCNC(=O)CC[C@H](NC(=O)CC[C@H](NC(=O)CCCCCCCCCCCCCC(=O)O)C(=O)O)C(=O)O)C(=O)N1CCC[C@H]1C(=O)N[C@@H](CO)C(=O)N[C@@H](CO)C(=O)NCC(=O)N[C@@H](C)C(=O)N1CCC[C@H]1C(=O)N1CCC[C@H]1C(=O)N1CCC[C@H]1C(=O)N[C@@H](CO)C(N)=O)C(C)C) [Compound 101]	550 nM	0.0002 nM
[NMeY][Aib]EGTFISDYSIALDRIHQ[Aib]K([AEEA-AEEA-γGlu-C16 diacid])FVNWLLAQK [Compound 9]	95.5 nM	0.0002 nM
[NMeY][Aib]EGTFISDYSI[Aib]LDR[Aib]AQ[Aib]K(2OEGgEgE‑C15DA)FVNWLLAQSPSSGAPPPS-NH2 (N-terminus assumed; SMILES CC[C@H](C)[C@H](NC(=O)[C@H](Cc1ccccc1)NC(=O)[C@@H](NC(=O)CNC(=O)[C@H](CCC(=O)O)NC(=O)C(C)(C)NC(=O)[C@H](Cc1ccc(O)cc1)NC)[C@@H](C)O)C(=O)N[C@@H](CO)C(=O)N[C@@H](CC(=O)O)C(=O)N[C@@H](Cc1ccc(O)cc1)C(=O)N[C@@H](CO)C(=O)N[C@H](C(=O)NC(C)(C)C(=O)N[C@@H](CC(C)C)C(=O)N[C@@H](CC(=O)O)C(=O)N[C@@H](CCCNC(=N)N)C(=O)NC(C)(C)C(=O)N[C@@H](C)C(=O)N[C@@H](CCC(N)=O)C(=O)NC(C)(C)C(=O)N[C@@H](CCCCNC(=O)COCCOCCNC(=O)COCCOCCNC(=O)CC[C@H](NC(=O)CC[C@H](NC(=O)CCCCCCCCCCCCCC(=O)O)C(=O)O)C(=O)O)C(=O)N[C@@H](Cc1ccccc1)C(=O)N[C@H](C(=O)N[C@@H](CC(N)=O)C(=O)N[C@@H](Cc1c[nH]c2ccccc12)C(=O)N[C@@H](CC(C)C)C(=O)N[C@@H](CC(C)C)C(=O)N[C@@H](C)C(=O)N[C@@H](CCC(N)=O)C(=O)N[C@@H](CO)C(=O)N1CCC[C@H]1C(=O)N[C@@H](CO)C(=O)N[C@@H](CO)C(=O)NCC(=O)N[C@@H](C)C(=O)N1CCC[C@H]1C(=O)N1CCC[C@H]1C(=O)N1CCC[C@H]1C(=O)N[C@@H](CO)C(N)=O)C(C)C)[C@@H](C)CC) [Compound 103]	148 nM	0.0005 nM
[NMeY][Aib]EGTFISDYSI[Aib]LDR[Aib]AQ[Aib]K([AEEA-γGlu-γGlu-γGlu-C15 diacid])FVNWLLAQK-NH2 (N-terminus assumed; SMILES CC[C@H](C)[C@H](NC(=O)[C@H](Cc1ccccc1)NC(=O)[C@@H](NC(=O)CNC(=O)[C@H](CCC(=O)O)NC(=O)C(C)(C)NC(=O)[C@H](Cc1ccc(O)cc1)NC)[C@@H](C)O)C(=O)N[C@@H](CO)C(=O)N[C@@H](CC(=O)O)C(=O)N[C@@H](Cc1ccc(O)cc1)C(=O)N[C@@H](CO)C(=O)N[C@H](C(=O)NC(C)(C)C(=O)N[C@@H](CC(C)C)C(=O)N[C@@H](CC(=O)O)C(=O)N[C@@H](CCCNC(=N)N)C(=O)NC(C)(C)C(=O)N[C@@H](C)C(=O)N[C@@H](CCC(N)=O)C(=O)NC(C)(C)C(=O)N[C@@H](CCCCNC(=O)COCCOCCNC(=O)CC[C@H](NC(=O)CC[C@H](NC(=O)CC[C@H](NC(=O)CCCCCCCCCCCCCC(=O)O)C(=O)O)C(=O)O)C(=O)O)C(=O)N[C@@H](Cc1ccccc1)C(=O)N[C@H](C(=O)N[C@@H](CC(N)=O)C(=O)N[C@@H](Cc1c[nH]c2ccccc12)C(=O)N[C@@H](CC(C)C)C(=O)N[C@@H](CC(C)C)C(=O)N[C@@H](C)C(=O)N[C@@H](CCC(N)=O)C(=O)N[C@@H](CCCCN)C(N)=O)C(C)C)[C@@H](C)CC) [Compound 112]	12 nM	0.0004 nM
[NMeY][Aib]EGTFISDYSI[Aib]LDR[Aib]AQ[Aib]KFVNWLLAQRGGGGS-NH2 (not fully specified (residue 21)) [Compound 114]	115 nM	0.0007 nM
